Test results: patent US20130331333A1 (HADASIT MEDICAL RESEARCH SERVICES AND DEVELOPMENT, published 2013)
Residue numbers refer to the chain shown, from its start.

T1: HA-tagged wt hPar1 (human, UniProt P25116 42-425)
T1 construct: whole, on cells; Tested in lysates of transfected cells; also called HA-wt hPar1; HA-wthPar1; not shown: HA tag added downstream of the ATG start codon
T1 sequence (looked up): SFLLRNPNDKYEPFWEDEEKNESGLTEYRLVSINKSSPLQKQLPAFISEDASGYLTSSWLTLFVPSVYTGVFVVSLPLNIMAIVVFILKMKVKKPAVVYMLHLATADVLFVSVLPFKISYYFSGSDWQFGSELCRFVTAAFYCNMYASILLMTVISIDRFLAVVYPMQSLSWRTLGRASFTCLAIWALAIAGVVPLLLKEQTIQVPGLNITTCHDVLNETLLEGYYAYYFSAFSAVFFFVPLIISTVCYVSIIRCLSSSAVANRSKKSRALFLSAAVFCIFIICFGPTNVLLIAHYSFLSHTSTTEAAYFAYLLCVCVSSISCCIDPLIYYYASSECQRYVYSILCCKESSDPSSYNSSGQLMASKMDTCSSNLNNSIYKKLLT

T2: wild-type protease-activated receptor 2 (wt hPar2) (human, UniProt P55085 37-397)
T2 construct: whole, on cells; Species read from the name hPar2
T2 sequence (looked up): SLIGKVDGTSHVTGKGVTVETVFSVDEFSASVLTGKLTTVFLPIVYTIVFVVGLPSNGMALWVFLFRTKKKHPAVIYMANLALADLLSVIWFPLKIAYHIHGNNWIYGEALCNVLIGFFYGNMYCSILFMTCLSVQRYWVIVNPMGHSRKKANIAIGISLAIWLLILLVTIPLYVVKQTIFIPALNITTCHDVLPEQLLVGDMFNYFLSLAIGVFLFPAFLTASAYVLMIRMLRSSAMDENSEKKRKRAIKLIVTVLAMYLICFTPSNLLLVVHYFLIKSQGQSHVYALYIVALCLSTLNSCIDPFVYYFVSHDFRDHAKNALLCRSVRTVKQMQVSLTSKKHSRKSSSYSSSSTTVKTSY

T3: Etk/Bmx (epithelial tyrosine kinase), wild type (UniProt P51813 1-675)
T3 construct: Plasmids after Tsai et al. 2000; also called wt-Etk
T3 sequence (looked up): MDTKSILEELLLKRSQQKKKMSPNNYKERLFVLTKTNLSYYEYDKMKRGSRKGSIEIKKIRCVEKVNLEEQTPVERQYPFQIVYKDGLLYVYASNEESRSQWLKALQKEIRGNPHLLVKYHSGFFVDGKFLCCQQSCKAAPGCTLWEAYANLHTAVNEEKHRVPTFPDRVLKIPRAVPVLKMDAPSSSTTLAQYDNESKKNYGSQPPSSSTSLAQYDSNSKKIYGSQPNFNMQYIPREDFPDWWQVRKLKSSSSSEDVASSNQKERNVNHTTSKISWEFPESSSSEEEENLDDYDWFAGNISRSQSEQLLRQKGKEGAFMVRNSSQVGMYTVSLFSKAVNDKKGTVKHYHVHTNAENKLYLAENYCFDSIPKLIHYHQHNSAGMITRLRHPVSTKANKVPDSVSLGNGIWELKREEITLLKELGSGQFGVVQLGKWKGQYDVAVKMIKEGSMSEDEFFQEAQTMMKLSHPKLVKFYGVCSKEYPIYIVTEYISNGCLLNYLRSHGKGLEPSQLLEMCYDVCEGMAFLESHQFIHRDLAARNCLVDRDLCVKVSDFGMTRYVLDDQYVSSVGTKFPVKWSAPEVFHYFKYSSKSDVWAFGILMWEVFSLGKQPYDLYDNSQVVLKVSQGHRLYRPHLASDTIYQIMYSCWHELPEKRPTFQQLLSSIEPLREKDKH

B1: GST-PH-Vav3 (other, UniProt Q9UKW4 400-502, looked up)
chain: RPQGDGEIRITTLDKHTKQERHIFLFDLAVIVCKRKGDNYEMKEIIDLQQYKIANNPTTDKENKKWSYGFYLIHTQGQNGLEFYCKTKDLKKKWLEQFEMALS
notes: domain: PH domain; also called PH-domain-Vav3; Vav3-PH-domain; not shown: GST tag
B2: HA-tagged mutant hPar1-7A (receptor, human, UniProt P25116 42-425, looked up)
chain: T1 sequence (looked up) with C337A, Q338A, R339A, Y340A, V341A, Y342A, S343A
notes: whole, on cells; Tested in lysates of transfected cells; also called HA-hPar1-7A; PAR1A7; not shown: HA tag

Key:
HA-tagged wt hPar1 = target: T1, HA-tagged wt hPar1; test: lysates of cells transfected with HA-tag-hPar1 applied on GST-PH-Vav3
Experimental: GST fusion protein columns. Fusion proteins were purified from transformed Escherichia coli bacteria that had been stimulated with isopropyl-β-D-thio-galactopyranoside (IPTG) at a concentration of […]. Bacteria were lysed according to published procedures, and then immobilized on glutathione Sepharose beads (Pharmacia). Briefly, MDA-MB-435 cell lysates were applied to GST-PAR1C-tail or GST control columns. After 2 h binding periods to the designated protein/s cell lysates to the columns, a washing step was performed. The washes (×3) were carried out using a “wash buffer” including: 100 mM NaCL, 20 mM EDTA, 10 mM Tris, pH 8.0 and 1% Triton ×100. This step was performed in order to wash out all non-specific proteins, leaving the GST-PAR₁-C-tail column firmly bound to targeted cell lysate proteins. Next, elution of bound proteins was performed via the addition of gel “sample buffer” and appropriate boiling. The samples were run electrophoretically on SDS-PAGE gels, followed by immunoblotting with the indicated antibodies and ECL detection. GST-PH-Etk/Bmx. The PH domain in Etk/Bmx was bound to GST column as previously described (Chen R, et al. (2001) Nat Cell Biol. 3: 439-444).
Next, a panel of cell-lines was transfected with HA-tag-hPar1. Cell lysates were prepared and applied onto GST-PH-Akt or GST-PH-Vav₃. […]

[1] = target: B2; test: cell lysates applied on GST-PH-Vav3
Experimental: GST fusion protein columns. Fusion proteins were purified from transformed Escherichia coli bacteria that had been stimulated with isopropyl-β-D-thio-galactopyranoside (IPTG) at a concentration of […]. Bacteria were lysed according to published procedures, and then immobilized on glutathione Sepharose beads (Pharmacia). Briefly, MDA-MB-435 cell lysates were applied to GST-PAR1C-tail or GST control columns. After 2 h binding periods to the designated protein/s cell lysates to the columns, a washing step was performed. The washes (×3) were carried out using a “wash buffer” including: 100 mM NaCL, 20 mM EDTA, 10 mM Tris, pH 8.0 and 1% Triton ×100. This step was performed in order to wash out all non-specific proteins, leaving the GST-PAR₁-C-tail column firmly bound to targeted cell lysate proteins. Next, elution of bound proteins was performed via the addition of gel “sample buffer” and appropriate boiling. The samples were run electrophoretically on SDS-PAGE gels, followed by immunoblotting with the indicated antibodies and ECL detection. GST-PH-Etk/Bmx. […]
(§1) Namely, without wishing to be bound by theory the PAR₁-C-tail appears to be an anchor region for association with PH-domain containing proteins. For this purpose, the association between Akt (which is ubiquitously expressed in the cells) and PAR₁ was analyzed, following activation. […]

[2] = target: T2, wild-type protease-activated receptor 2 …; test: cell lysates applied on GST immobilized PH-domain columns (PAR2)
[3] = target: T3, Etk/Bmx (epithelial tyrosine kinase), …; test: co-immunoprecipitation with anti-HA, anti-Bmx blot, MCF7 clones after PAR1 activation
Experimental: After overnight incubation, Protein A-Sepharose beads (Amersham Pharmacia Biotech, Buckinghamshire, UK) were added to the suspension (50 μl), which was rotated at 4° C. for 1 h. The immunocomplexes were eluted and run electrophoretically on a 10% SDS-PAGE gel, followed by transfer to an Immobilon-P membrane (Millipore). Membranes were blocked and probed with 1 μg/ml amounts of the appropriate antibodies as follows: anti-PAR₁ thrombin receptor mAb, (ATAP, from Santa Cruz, 1:1000); anti-Shc (BD, 1:2000); anti-Bmx (Transduction Laboratories, 1:1000) or anti-PY (Upstate 4G10, 1:2500), suspended in 3% BSA in 10 mM Tris-HCl, pH 7.5, 100 mM NaCl, and 0.5% Tween-20. After washes the blots were incubated with secondary antibodies conjugated to horseradish-peroxidase. Immunoreactive bands were detected by enhanced chemiluminescence (ECL). Membranes were stripped and incubated with anti-IP antibodies to ensure equal protein load.
Based on the competition assay mutated hPar1 constructs with successive replacement of seven residues (378-384; CQRYVYS) were prepared. […] The clones expressing either HA-tagged wt hPar1 or a mutant construct of HA-hPar1-7A were activated and further analyzed for co-immunoprecipitation (IP) of PAR₁ with Etk/Bmx. […] The blots were detected by anti-Bmx (Transduction Laboratories, BD Biosciences, CA) for the identification of Etk/Bmx-associated PAR₁. […]

Akt (PKB) = Akt (PKB) (UniProt P31749 1-480, limits assumed); test: co-immunoprecipitation of Akt and PAR1 in transfected HU cells
Experimental: Western blot and immunoprecipitation analysis: Cells were activated with agonist peptide […] (SEQ ID NO: 35) for the indicated periods of time and solubilized in lysis buffer containing 10 mM Tris-HCl, pH 7.4, 150 mM NaCl, 1 mM EDTA, 1% TritonX-100, and protease inhibitors ([…] aprotinin, 1 mM phenylmethylsulfonylfluoride, and […] leupeptin) at 4° C. for 30 min. The cell lysates were subjected to centrifugation at 12,000 rpm at 4° C. for 20 min. We used 400 μg of the supernatants with anti-PAR₁ (ATAP, Santa Cruz, Calif. 1 μg), anti-HA (anti-HA sc-7392; Santa Cruz, Calif.), anti-Shc or Etk/Bmx antibodies (10 μg/ml). After overnight incubation, Protein A-Sepharose beads (Amersham Pharmacia Biotech, Buckinghamshire, UK) were added to the suspension (50 μl), which was rotated at 4° C. for 1 h. The immunocomplexes were eluted and run electrophoretically on a 10% SDS-PAGE gel, followed by transfer to an Immobilon-P membrane (Millipore). […] Immunoreactive bands were detected by enhanced chemiluminescence (ECL). […]
as §1

Akt (PKB), sequence (P31749 whole entry): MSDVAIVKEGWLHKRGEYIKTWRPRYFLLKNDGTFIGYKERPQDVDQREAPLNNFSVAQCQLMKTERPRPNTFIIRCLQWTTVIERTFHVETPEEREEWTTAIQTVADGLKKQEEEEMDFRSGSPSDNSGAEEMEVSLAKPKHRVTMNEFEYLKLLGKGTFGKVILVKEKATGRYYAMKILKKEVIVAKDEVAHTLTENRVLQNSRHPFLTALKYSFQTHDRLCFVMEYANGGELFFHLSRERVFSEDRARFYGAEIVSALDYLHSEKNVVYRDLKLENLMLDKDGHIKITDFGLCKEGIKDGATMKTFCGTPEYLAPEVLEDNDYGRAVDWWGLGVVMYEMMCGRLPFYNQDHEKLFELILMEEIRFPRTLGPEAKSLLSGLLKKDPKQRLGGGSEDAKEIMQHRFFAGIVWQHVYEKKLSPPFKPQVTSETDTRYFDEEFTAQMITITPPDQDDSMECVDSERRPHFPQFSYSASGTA

Binder | binding result (HA-tagged wt hPar1) | binding result [1] | binding result [2] | binding result [3] | binding result (Akt (PKB))
B1 | binds | no binding | binds |  | 
B2 |  |  |  | no binding | no binding
